One assay has as its target T1, WCH-1 water channel (Rattus norvegicus, UniProt P34080).
T1 construct: The longest open reading frame encodes a 271-amino acid protein (Mr 28928); expressed in transfected cells; host or cells: Xenopus laevis oocytes injected with cRNA transcribed from WCH-1 in pSPORT
T1 sequence (P34080 1-271): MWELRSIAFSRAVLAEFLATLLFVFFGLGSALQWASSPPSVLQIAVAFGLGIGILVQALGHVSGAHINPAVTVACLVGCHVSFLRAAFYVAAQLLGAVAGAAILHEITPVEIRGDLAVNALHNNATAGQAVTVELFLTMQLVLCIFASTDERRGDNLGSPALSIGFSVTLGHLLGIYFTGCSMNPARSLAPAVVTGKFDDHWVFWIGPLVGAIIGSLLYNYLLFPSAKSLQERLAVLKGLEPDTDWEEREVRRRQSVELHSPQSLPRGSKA
Description: Effect of mercurial sulfhydryl reagent and reducing agent on Pf of WCH-1-injected oocytes. It counts as cell-based. How it is done: (§1) Capped cRNA was synthesized from WCH-1 in pSPORT vector using T7 RNA polymerase after linearization of the pSPORT vector. Oocytes were obtained from female Xenopus laevis and prepared as described in Dascal, N. CRC Crit. Rev. Biochem. 22, 317-373 (1987), then injected with […] or 20 ng of WCH-1 RNA (1 μg/μL) and incubated at 18° C. […] Oocytes were viewed by light transmitted through an Olympus phase-contrast microscope and imaged on a Hamamatsu SIT camera connected to ARGUS-200 image processing system. Images were obtained and stored at 20-s intervals.
(§2) Osmotic water permeability (Pf) was determined from an initial slope of a time curve of V/Vo (d (V/Vo)/dt), initial oocyte volume (Vo =9×10^-4 cm^3), initial oocyte surface area (S=0.045 cm^2), the molar volume of water (Vw =18 cm^3 /mol) by:
(§3) Pf=[Vo×d (V/Vo)/dt]/[S×Vw ×(osmin
To examine the effects of mercurial sulfhydryl reagents, oocytes were incubated in Barth's buffer containing 0.3 mM HgCl2 for 5 minutes prior to Pf measurements. The recovery of the inhibition by reducing agents was examined by 15 minutes incubation in a Barth's buffer containing 5 mM β-mercaptoethanol following 5-minute incubation in HgCl2.

In another assay the test system is Xenopus oocytes. The assay is described as follows: Osmotic water permeability of Xenopus oocytes injected with WCH-1 RNA (videomicroscopy of osmotic volume increase). The assay is classed as cell-based, Xenopus laevis. The protocol: To determine the osmic water permeability of oocytes injected with the WCH-1 transcript, volume increase caused by an imposed osmotic gradient was measured using videomicroscopy (Zhang, R. & Verkman, A. S. Am. J. Physiol. 260, C26-C34 (1991)).
as §1
Oocytes images were processed as described in Zhang, R. & Verkman, A. S. Am. J. Physiol. 260, C26-C34 (1991) and the projection area of the oocytes was calculated by automatic summation. Relative volume (V/Vo) was calculated from the area at time 0 (Ao) and at time t (A) by:
as §2, §3

Three molecules from patent publication US5661003A, “Water channel” (Marumo; Fumiaki, priority 1992, dated 1997) can be followed below.

For the molecule `[Cl][Hg][Cl]` [HgCl2], the “Pf in WCH-1-injected oocytes after incubation in HgCl2” value on WCH-1 water channel (0.3 mM HgCl2, five minutes, Pf without HgCl2 83.9±18.2) was 44.5±3.6 ×10^-4 cm/sec.

As for `OCCS` [B-mercaptoethanol, β-mercaptoethanol], the “Pf in WCH-1-injected oocytes after recovery with reducing agent” value at WCH-1 water channel (5 mM mercaptoethanol for 15 minutes following incubation in 0.3 mM HgCl2) is on record as 63.1±25.8 ×10^-4 cm/sec.

B1: WCH-1: vasopressin-regulated water channel localized in the kidney collecting tubule; expressed in oocytes by injection of its capped cRNA (protein, UniProt P34080 1-271, looked up)
Aquaporin-2: T1 sequence (P34080 1-271)
In the case of B1, the “Pf in WCH-1-injected oocytes relative to Pf in water-injected oocytes” value in the assay on Xenopus oocytes (WCH-1-injected vs water-injected oocytes) came to 3.5 times. The “Osmotic water permeability (Pf)” value with Xenopus oocytes (oocytes injected with 20 ng WCH-1 RNA, 24 h incubation, transfer from 200 mOsm to 70 mOsm Barth's buffer, 24° C., mean±SEM) is on record as 83.9±18.2 ×10^-4 cm/s. Besides, the “Oocytes ruptured after transfer into the hypotonic solution” value with Xenopus oocytes (within 10 minutes, none of water-injected oocytes ruptured for more than 60 minutes) was “ten out of eleven”.
